# Reference: patent US10487348B2, “3-alpha-hydroxysteroid dehydrogenase mutants and process for the preparation of ursodeoxycholic acid” (Pharmazell GmbH, priority 2014, dated 2019)
# B1: T188A N: 3α-HSDH mutant T188A with N-terminal hexahistidine tag (protein, UniProt P80702 2-257, looked up, variant T188A)
# 3-alpha-hydroxysteroid …: SIIVISGCATGIGAATRKVLEAAGHQIVGIDIRDAEVIADLSTAEGRKQAIADVLAKCSKGMDGLVLCAGLGPQTKVLGNVVSVNYFGATELMDAFLPALKKGHQPAAVVISSVASAHLAFDKNPLALALEAGEEAKARAIVEHAGEQGGNLAYAGSKNALTVAVRKRAAAWGEAGVRLNTIAPGAAETPLLQAGLQDPRYGESIAKFVPPMGRRAEPSEMASVIAFLMSPAASYVHGAQIVIDGGIDAVMRPTQF
# modifications: N-terminal His6 tag
# notes: 3α-HSDH mutant T188A with N-terminal hexahistidine tag
# B2: P185A/T188A N: 3α-HSDH dual mutant P185A/T188A with N-terminal hexahistidine tag (protein, UniProt P80702 2-257, looked up, variant P185A T188A)
# 3-alpha-hydroxysteroid …: SIIVISGCATGIGAATRKVLEAAGHQIVGIDIRDAEVIADLSTAEGRKQAIADVLAKCSKGMDGLVLCAGLGPQTKVLGNVVSVNYFGATELMDAFLPALKKGHQPAAVVISSVASAHLAFDKNPLALALEAGEEAKARAIVEHAGEQGGNLAYAGSKNALTVAVRKRAAAWGEAGVRLNTIAAGAAETPLLQAGLQDPRYGESIAKFVPPMGRRAEPSEMASVIAFLMSPAASYVHGAQIVIDGGIDAVMRPTQF
# modifications: N-terminal His6 tag
# notes: 3α-HSDH dual mutant P185A/T188A with N-terminal hexahistidine tag
# B3: T188S N: 3α-HSDH mutant T188S with N-terminal hexahistidine tag (protein, UniProt P80702 2-257, looked up, variant T188S)
# 3-alpha-hydroxysteroid …: SIIVISGCATGIGAATRKVLEAAGHQIVGIDIRDAEVIADLSTAEGRKQAIADVLAKCSKGMDGLVLCAGLGPQTKVLGNVVSVNYFGATELMDAFLPALKKGHQPAAVVISSVASAHLAFDKNPLALALEAGEEAKARAIVEHAGEQGGNLAYAGSKNALTVAVRKRAAAWGEAGVRLNTIAPGASETPLLQAGLQDPRYGESIAKFVPPMGRRAEPSEMASVIAFLMSPAASYVHGAQIVIDGGIDAVMRPTQF
# modifications: N-terminal His6 tag
# notes: 3α-HSDH mutant T188S with N-terminal hexahistidine tag
# B4: L68A N: 3α-HSDH mutant L68A with N-terminal hexahistidine tag (protein, UniProt P80702 2-257, looked up, variant L68A)
# 3-alpha-hydroxysteroid …: SIIVISGCATGIGAATRKVLEAAGHQIVGIDIRDAEVIADLSTAEGRKQAIADVLAKCSKGMDGLVACAGLGPQTKVLGNVVSVNYFGATELMDAFLPALKKGHQPAAVVISSVASAHLAFDKNPLALALEAGEEAKARAIVEHAGEQGGNLAYAGSKNALTVAVRKRAAAWGEAGVRLNTIAPGATETPLLQAGLQDPRYGESIAKFVPPMGRRAEPSEMASVIAFLMSPAASYVHGAQIVIDGGIDAVMRPTQF
# modifications: N-terminal His6 tag
# notes: 3α-HSDH mutant L68A with N-terminal hexahistidine tag
# B5: L68A/T188A N: 3α-HSDH dual mutant L68A/T188A with N-terminal hexahistidine tag (protein, UniProt P80702 2-257, looked up, variant L68A T188A)
# 3-alpha-hydroxysteroid …: SIIVISGCATGIGAATRKVLEAAGHQIVGIDIRDAEVIADLSTAEGRKQAIADVLAKCSKGMDGLVACAGLGPQTKVLGNVVSVNYFGATELMDAFLPALKKGHQPAAVVISSVASAHLAFDKNPLALALEAGEEAKARAIVEHAGEQGGNLAYAGSKNALTVAVRKRAAAWGEAGVRLNTIAPGAAETPLLQAGLQDPRYGESIAKFVPPMGRRAEPSEMASVIAFLMSPAASYVHGAQIVIDGGIDAVMRPTQF
# modifications: N-terminal His6 tag
# notes: 3α-HSDH dual mutant L68A/T188A with N-terminal hexahistidine tag
# B6: L68A/T188S N: 3α-HSDH dual mutant L68A/T188S with N-terminal hexahistidine tag (protein, UniProt P80702 2-257, looked up, variant L68A T188S)
# 3-alpha-hydroxysteroid …: SIIVISGCATGIGAATRKVLEAAGHQIVGIDIRDAEVIADLSTAEGRKQAIADVLAKCSKGMDGLVACAGLGPQTKVLGNVVSVNYFGATELMDAFLPALKKGHQPAAVVISSVASAHLAFDKNPLALALEAGEEAKARAIVEHAGEQGGNLAYAGSKNALTVAVRKRAAAWGEAGVRLNTIAPGASETPLLQAGLQDPRYGESIAKFVPPMGRRAEPSEMASVIAFLMSPAASYVHGAQIVIDGGIDAVMRPTQF
# modifications: N-terminal His6 tag
# notes: 3α-HSDH dual mutant L68A/T188S with N-terminal hexahistidine tag
# B7: Comamonas testosteroni 3α-HSDH, wild type, C-terminal 3×His tag (Comamonas testosteroni) (protein)
# chain: MSIIVISGCATGIGAATRKVLEAAGHQIVGIDIRDAEVIADLSTAEGRKQAIADVLAKCSKGMDGLVLCAGLGPQTKVLGNVVSVNYFGATELMDAFLPALKKGHQPAAVVISSVASAHLAFDKNPLALALEAGEEAKARAIVEHAGEQGGNLAYAGSKNALTVAVRKRAAAWGEAGVRLNTIAPGATETPLLQAGLQDPRYGESIAKFVPPMGRRAEPSEMASVIAFLMSPAASYVHGAQIVIDGGIDAVMRPTQFLEHHH
# B8: Comamonas testosteroni 3α-HSDH mutant [T188A], N-terminal hexahistidine tag (Comamonas testosteroni; T188A) (protein)
# chain: MSIIVISGCATGIGAATRKVLEAAGHQIVGIDIRDAEVIADLSTAEGRKQAIADVLAKCSKGMDGLVLCAGLGPQTKVLGNVVSVNYFGATELMDAFLPALKKGHQPAAVVISSVASAHLAFDKNPLALALEAGEEAKARAIVEHAGEQGGNLAYAGSKNALTVAVRKRAAAWGEAGVRLNTIAPGAAETPLLQAGLQDPRYGESIAKFVPPMGRRAEPSEMASVIAFLMSPAASYVHGAQIVIDGGIDAVMRPTQF
# B9: Comamonas testosteroni 3α-HSDH mutant [L68A], N-terminal hexahistidine tag (Comamonas testosteroni; L68A) (protein)
# chain: MSIIVISGCATGIGAATRKVLEAAGHQIVGIDIRDAEVIADLSTAEGRKQAIADVLAKCSKGMDGLVACAGLGPQTKVLGNVVSVNYFGATELMDAFLPALKKGHQPAAVVISSVASAHLAFDKNPLALALEAGEEAKARAIVEHAGEQGGNLAYAGSKNALTVAVRKRAAAWGEAGVRLNTIAPGATETPLLQAGLQDPRYGESIAKFVPPMGRRAEPSEMASVIAFLMSPAASYVHGAQIVIDGGIDAVMRPTQF
# B10: Comamonas testosteroni 3α-HSDH mutant [P185A], N-terminal hexahistidine tag (Comamonas testosteroni; P185A) (protein)
# chain: MSIIVISGCATGIGAATRKVLEAAGHQIVGIDIRDAEVIADLSTAEGRKQAIADVLAKCSKGMDGLVLCAGLGPQTKVLGNVVSVNYFGATELMDAFLPALKKGHQPAAVVISSVASAHLAFDKNPLALALEAGEEAKARAIVEHAGEQGGNLAYAGSKNALTVAVRKRAAAWGEAGVRLNTIAAGATETPLLQAGLQDPRYGESIAKFVPPMGRRAEPSEMASVIAFLMSPAASYVHGAQIVIDGGIDAVMRPTQF
# B11: Comamonas testosteroni 3α-HSDH dual mutant [P185A/T188A], N-terminal hexahistidine tag (Comamonas testosteroni; P185A/T188A) (protein)
# chain: MSIIVISGCATGIGAATRKVLEAAGHQIVGIDIRDAEVIADLSTAEGRKQAIADVLAKCSKGMDGLVLCAGLGPQTKVLGNVVSVNYFGATELMDAFLPALKKGHQPAAVVISSVASAHLAFDKNPLALALEAGEEAKARAIVEHAGEQGGNLAYAGSKNALTVAVRKRAAAWGEAGVRLNTIAAGAAETPLLQAGLQDPRYGESIAKFVPPMGRRAEPSEMASVIAFLMSPAASYVHGAQIVIDGGIDAVMRPTQF
# B12: Comamonas testosteroni 3α-HSDH dual mutant [L68A/T188A], N-terminal hexahistidine tag (Comamonas testosteroni; L68A/T188A) (protein)
# chain: MSIIVISGCATGIGAATRKVLEAAGHQIVGIDIRDAEVIADLSTAEGRKQAIADVLAKCSKGMDGLVACAGLGPQTKVLGNVVSVNYFGATELMDAFLPALKKGHQPAAVVISSVASAHLAFDKNPLALALEAGEEAKARAIVEHAGEQGGNLAYAGSKNALTVAVRKRAAAWGEAGVRLNTIAPGAAETPLLQAGLQDPRYGESIAKFVPPMGRRAEPSEMASVIAFLMSPAASYVHGAQIVIDGGIDAVMRPTQF
# B13: Comamonas testosteroni 3α-HSDH dual mutant [L68A/T188S], N-terminal hexahistidine tag (Comamonas testosteroni; L68A/T188S) (protein)
# chain: MSIIVISGCATGIGAATRKVLEAAGHQIVGIDIRDAEVIADLSTAEGRKQAIADVLAKCSKGMDGLVACAGLGPQTKVLGNVVSVNYFGATELMDAFLPALKKGHQPAAVVISSVASAHLAFDKNPLALALEAGEEAKARAIVEHAGEQGGNLAYAGSKNALTVAVRKRAAAWGEAGVRLNTIAPGASETPLLQAGLQDPRYGESIAKFVPPMGRRAEPSEMASVIAFLMSPAASYVHGAQIVIDGGIDAVMRPTQF
# B14: Comamonas testosteroni 3α-HSDH mutant [T188S], N-terminal hexahistidine tag (Comamonas testosteroni; T188S) (protein)
# chain: MSIIVISGCATGIGAATRKVLEAAGHQIVGIDIRDAEVIADLSTAEGRKQAIADVLAKCSKGMDGLVLCAGLGPQTKVLGNVVSVNYFGATELMDAFLPALKKGHQPAAVVISSVASAHLAFDKNPLALALEAGEEAKARAIVEHAGEQGGNLAYAGSKNALTVAVRKRAAAWGEAGVRLNTIAPGASETPLLQAGLQDPRYGESIAKFVPPMGRRAEPSEMASVIAFLMSPAASYVHGAQIVIDGGIDAVMRPTQF
# What was measured:
# 3α-HSDH; substrate DHCA = type: biochemical, Comamonas testosteroni; settings: for DHCA substrate concentration at maximum specific activity / substrate excess inhibition: purified enzyme variant
# [1] = substrate: C[C@H](CCC(=O)O)[C@H]1CC[C@H]2[C@@H]3C(=O)C[C@@H]4CC(=O)CC[C@]4(C)[C@H]3CC(=O)[C@]12C; experiment: cells, lysate or membranes named; settings: other: His tag length 3; DHCA 10 μM-10 mM; NADH 0.2 mM; purified; pH 8.0; 25.0 °C
# Source text: The His-tag allows for very simple purification of the HSDH protein since this sequence is bound with high specificity by specific chromatographic material (NTA (Ni-nitrilotriacetate)-modified support material, loaded with divalent nickel ions, for example “His Pur Ni-NTA” (Nimagen B. V., Nijmegen, The Netherlands)). To this end, the cell-free crude extract is applied to a dropping column comprising this material, which dropping column has previously been equilibrated with the disruption buffer (3 to 5 column volumes). Weakly binding protein was removed by washing with 3 to 5 column volumes of wash buffer (20 mM imidazole, 50 mM sodium phosphate, 300 mM NaCl, pH 8). […] The process was carried out at room temperature. The imidazole which was present was to be removed by buffer exchange.
# The activity of the 3α-HSDH and of the mutants was determined using a photometric assay, where the decrease in absorbance was measured at 340 nm over a period of 30 seconds.
# Following expression (25° C., 0.5 mM, IPTG, 20 hours), the protein was purified, and the expression and the purification were checked by means of an SDS gel. […] The NADH concentration was 0.2 mM. Purified protein was employed in the measurements.
# [2] = substrate: C[C@H](CCC(=O)O)[C@H]1CC[C@H]2[C@@H]3C(=O)C[C@@H]4CC(=O)CC[C@]4(C)[C@H]3CC(=O)[C@]12C; experiment: purified protein, by the assay type; settings: other: Table 14, substrate DHCA, tag N, apparent values, pH 8.0
# [3] = substrate: NC(=O)C1=CN([C@@H]2O[C@H](COP(=O)(O)OP(=O)(O)OC[C@H]3O[C@@H](n4cnc5c(N)ncnc54)[C@H](O)[C@@H]3O)[C@@H](O)[C@H]2O)C=CC1; experiment: purified protein, by the assay type; settings: other: Table 15, substrate NADH; tag N; apparent values; pH 8.0
Molecule,DHCA substrate concentration at maximum specific activity (3α-HSDH; substrate DHCA) [mM],substrate excess inhibition (3α-HSDH; substrate DHCA; substrate DHCA),Km [2] [µM],Km [3] [µM],Vmax [3] [µmol/min/mg],kcat [3] [s⁻¹],kcat/Km [3] [M⁻¹ s⁻¹],other results
B1,0.5,pronounced substrate excess inhibition,,,,,,
B2,0.5,substrate excess inhibition was observed,,,,,,activities compared with the corresponding single mutants (3α-HSDH; substrate DHCA; substrate DHCA): markedly lower
B3,0.5,substrate excess inhibition is observed,,,,,,
B4,0.1,pronounced substrate excess inhibition,,,,,,
B5,0.5,less pronounced substrate excess inhibition,,,,,,
B6,0.5,pronounced substrate excess inhibition,,,,,,
B7,,,,,,,,Km [1]: 997.9 ± 483 µM
B8,,,94.5 ± 11,111.5 ± 18.2,237,130,1.17e+06,
B9,,,,17.1 ± 3.7,138,110,6.46e+06,Km ([2]; NADH 0.2 mM): 75.4 ± 22.6 µM
B10,,,71.0 ± 11,,,,,
B11,,,66.9 ± 15,333.9 ± 137.5,85.9,17.6,52600,
B12,,,164.4 ± 20.4,67.5 ± 4.7,229,111,1.65e+06,
B13,,,169.6 ± 22.6,47.4 ± 2.6,188,91.8,1.94e+06,
B14,,,312.6 ± 112,87.6 ± 29.7,147,96.1,1.1e+06,
